Holding throughout (details): Ca2+
Substrate in the data set “purified protein”: OC[C@H]1O[C@H](OC[C@H]2OC(O)[C@H](O)[C@@H](O)[C@@H]2O)[C@H](O)[C@@H](O)[C@H]1O
Description: purified protein.

Substrate in data set [1]: O=[N+]([O-])c1ccc(O[C@H]2O[C@H](CO)[C@H](O)[C@H](O)[C@H]2O)cc1
Description: Michaelis-Menten kinetics (KM) and 1H NMR of hydrolysis. It is filed as biochemical, Bacteroides thetaiotaomicron.

Substrate in data set [2]: O=[N+]([O-])c1ccc(O[C@H]2O[C@H](CO)[C@@H](O)[C@H](O)[C@H]2O)cc1
The description is as above. It is filed as biochemical, Bacteroides thetaiotaomicron.

Substrate in data set [3]: OC[C@H]1O[C@H](O[C@H]2[C@H](O)[C@@H](O)C(O)O[C@@H]2CO)[C@H](O)[C@@H](O)[C@@H]1O
Description: stopped glucose oxidase/peroxidase assay, Michaelis-Menten (KM) with substrate inhibition. The format is biochemical, Bacteroides thetaiotaomicron.

From paper PMC2670981, “Divergence of Catalytic Mechanism within a Glycosidase Family Provides Insight into Evolution of Carbohydrate Metabolism by Human Gut Flora” (Chemistry & Biology, 2008) come the findings set out here.

B1: BtGH97b (Bacteroides thetaiotaomicron VPI-5482) (protein)
chain: QKQFTLASPDGNLKTTITIGDRLTYDITCNGRQILTPSPISMTLDNGTVWGENAKLSGTSRKSVDEMIPSPFYRASELRNHYNGLTLRFKKDWNVEFRAYNDGIAYRFVNQGKKPFRVVTEVSDYCFPSDMTASVPYVKSGKDGDYNSQFFNSFENTYTTDKLSKLNKQRLMFLPLVVDAGDGVKVCITESDLENYPGLYLSASEGANRLSSMHAPYPKRTVQGGHNQLQMLVKEHEDYIAKVDKPRNFPWRIAVVTTTDKDLAATNLSYLLGAPSRMSDLSWIKPGKVAWDWWNDWNLDGVDFVTGVNNPTYKAYIDFASANGIEYVILDEGWAVNLQADLMQVVKEIDLKELVDYAASKNVGIILWAGYHAFERDMENVCRHYAEMGVKGFKVDFMDRDDQEMTAFNYRAAEMCAKYKLILDLHGTHKPAGLNRTYPNVLNFEGVNGLEQMKWSSPSVDQVKYDVMIPFIRQVSGPMDYTQGAMRNASKGNYYPCYSEPMSQGTRCRQLALYVVFESPFNMLCDTPSNYMREPESTAFIAEIPTVWDESIVLDGKMGEYIVTARRKGDVWYVGGITDWSARDIEVDCSFLGDKSYHATLFKDGVNAHRAGRDYKCESFPIKKDGKLKVHLAPGGGFALKIK
As a reminder, the Km is the substrate concentration at which the rate is half of its maximum. As usually defined, the kcat is the maximal rate divided by the concentration of active sites. By kcat/Km is commonly meant the turnover number divided by the Michaelis constant. As to B1, in “purified protein”, the Km came out at 1500 ± 170 µM, the kcat turned out to be 0.015 s⁻¹ and the kcat/Km was 11 M⁻¹ s⁻¹. Further, in data set [1], the Km was 230 ± 10 µM, the kcat is 91 ± 2 s⁻¹ and the kcat/Km was determined as 391000 M⁻¹ s⁻¹.

B2: BtGH97a (Bacteroides thetaiotaomicron VPI-5482) (protein)
chain: QQKLTSPDNNLVMTFQVDSKGAPTYELTYKNKVVIKPSTLGLELKKEDNTRTDFDWVDRRDLTKLDSKTNLYDGFEVKDTQTATFDETWQPVWGEEKEIRNHYNELAVTLYQPMNDRSIVIRFRLFNDGLGFRYEFPQQKSLNYFVIKEEHSQFGMNGDHIAFWIPGDYDTQEYDYTISRLSEIRGLMKEAITPNSSQTPFSQTGVQTALMMKTDDGLYINLHEAALVDYSCMHLNLDDKNMVFESWLTPDAKGDKGYMQTPCNTPWRTIIVSDDARNILASRITLNLNEPCKIADAASWVKPVKYIGVWWDMITGKGSWAYTDELTSVKLGETDYSKTKPNGKHSANTANVKRYIDFAAAHGFDAVLVEGWNEGWEDWFGNSKDYVFDFVTPYPDFDVKEIHRYAARKGIKMMMHHETSASVRNYERHMDKAYQFMADNGYNSVKSGYVGNIIPRGEHHYGQWMNNHYLYAVKKAADYKIMVNAHEATRPTGICRTYPNLIGNESARGTEYESFGGNKVYHTTILPFTRLVGGPMDYTPGIFETHCNKMNPANNSQVRSTIARQLALYVTMYSPLQMAADIPENYERFMDAFQFIKDVALDWDETNYLEAEPGEYITIARKAKDTDDWYVGCTAGENGHTSKLVFDFLTPGKQYIATVYADAKDADWKENPQAYTIKKGILTNKSKLNLHAANGGGYAISIKEVKDKSEAKGLKRL
With B2, in data set [2], the Michaelis constant (Km) stood at 85 ± 9 µM, the kcat amounted to 53 ± 2 s⁻¹ and the kcat/Km was 620000 M⁻¹ s⁻¹. Also, in data set [3], the Michaelis-Menten constant (Km) came out at 2000 ± 400 µM, the turnover number (kcat) is 0.015 ± 0.002 s⁻¹ and the kcat/Km amounted to 7.2 M⁻¹ s⁻¹.
